According to article PMC4656213, “Structural basis for inhibition of the Tob-CNOT7 interaction by a fragment screening approach” (Protein & Cell, 2015):
Numbering of substitutions follows the chain as printed. Numbers in names are those of the source.

B1: human Tob residues 1-138 (TobN138), wild type (domain or fragment, UniProt P50616 1-138, looked up)
chain: MQLEIQVALNFIISYLYNKLPRRRVNIFGEELERLLKKKYEGHWYPEKPYKGSGFRCIHIGEKVDPVIEQASKESGLDIDDVRGNLPQDLSVWIDPFEVSYQIGEKGPVKVLYVDDNNENGCELDKEIKNSFNPEAQV
notes: Tob (Tob1), human, residues 1-138, containing the Box A and Box B motifs; Cloned into pGEX-6P-1 via BamHI and XhoI; A second preparation (His6-SUMO, pET-28b, Rosetta2) was made for the SPR screening; also called Tob1; TobN138 WT
B2: TobN138 K63A mutant (domain or fragment, human, UniProt P50616 1-138, looked up)
chain: B1 chain with K63A
notes: Tob (Tob1), human, residues 1-138, with the point mutation K63A; Made by PCR mutagenesis with the human TobN138 expression plasmid as template; source: E. coli BL21 (DE3), purified following the protocol for wild-type Tob

Target: T1, human CNOT7 (human, UniProt Q9UIV1 11-262)
T1 construct: CNOT7 (Caf1), human; A second preparation (N-terminal His6, pET-28b, Rosetta2) was made for the SPR screening; also called Caf1; CAF1; source: E. coli BL21 (DE3), purified following the protocol for wild-type Tob
Assay: ITC; CNOT7 at 0.05 mM in the cell, TobN138 (wild type or K63A) at 0.45 mM titrated in; room temperature; 20 mM HEPES pH 7.5, 150 mM NaCl, 5% DMSO; one-site model
Details: both partners purified

T1 sequence (Q9UIV1 11-262): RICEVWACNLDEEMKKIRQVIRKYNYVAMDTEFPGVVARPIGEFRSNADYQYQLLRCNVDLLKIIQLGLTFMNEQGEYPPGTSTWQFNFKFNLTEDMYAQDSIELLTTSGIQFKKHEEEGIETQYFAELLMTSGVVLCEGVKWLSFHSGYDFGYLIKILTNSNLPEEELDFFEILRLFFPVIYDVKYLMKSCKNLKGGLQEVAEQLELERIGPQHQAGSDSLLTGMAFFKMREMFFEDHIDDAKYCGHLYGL

Row | Binder | stoichiometry N [sites]
1 | B1 | 0.611 ± 0.00797
2 | B2 | 0.737 ± 0.00585
